This note sets out measurements from US20170204172A1 (IMMUNDIAGNOSTIK, published 2017).

Assay [1] concerns the target T1, human bone sialoprotein (BSP) in plasma (human, UniProt P21815 17-317, phosphorylated serine at positions 31, 67, 74, 75, 94, 100, 149, 280; sulphated tyrosine; multiple complex glycosylation (as described for human BSP)).
T1 construct: Native BSP as present in human plasma; also called human BSP; hBSP
T1 sequence (looked up): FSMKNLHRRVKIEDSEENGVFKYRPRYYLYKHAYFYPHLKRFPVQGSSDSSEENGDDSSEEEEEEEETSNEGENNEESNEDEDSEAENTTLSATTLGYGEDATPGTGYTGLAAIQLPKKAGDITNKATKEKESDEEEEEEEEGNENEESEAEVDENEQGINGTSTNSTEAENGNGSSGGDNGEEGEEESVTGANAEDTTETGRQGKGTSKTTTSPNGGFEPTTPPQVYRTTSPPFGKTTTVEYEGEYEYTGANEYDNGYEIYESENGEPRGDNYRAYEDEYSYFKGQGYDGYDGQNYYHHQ
Description: titration and competition experiments.

The target in assay [2] is T1, human bone sialoprotein (BSP) in plasma. Put plainly: screening of a phagemid single chain antibody library with peptide antigen and human BSP in plasma. The source says:
We screened differentially a synthetic human antibody library for an antibody reacting with synthetic peptide epitopes derived and common to rat or human BSP which we assumed being accessible in plasma. Moreover, we screened a proprietary synthetic human antibody library (mAB-Factory GmbH, Braunschweig, DE), prepared in accordance with DE 4122599 C2 and WO 93/01288 (PCT/EP92/01524), for phagemid-expressed single chain antibodies binding to BSP peptide epitopes with a soluble peptide antigen as indicated and with human BSP in plasma. A respective full human antibody (AF165R4.2-E2) specific for human BSP in plasma was obtained and reconstructed.

B1: chimeric version of the rat mAb anti-BSP_IDK1 (antibody, V domains shown)
VH: QVQLQESGAELVRPGSSVKISCKASGYTFTDFYMHWVKQGPEQGLVWIGRINPANGNTIYAEKFKTKATLTADKSSNTAYMQLSSLTSEDTATYFCSSAYWGQGTLVTVSS
VL: DILLTQTPPTSSATIGQSVSISCRSSQSLLDNDGNTYTLYWYLQRPTQSPQLLIYLVSKLRSGVPNRFSGSGSGTDFTLKISGVEAEDLGVYYCVQGTHDPWTFGGGTKLELKR
notes: The entries include a signal peptide that is marked only by underlining in a drawing; Kappa light chain; also called chimeric version of a rat mAB - IDK 1; human chimeric version of a monoclonal rat antibody
Take B1: the binding result in assay [1] is given as “binds”.

B2: anti-BSP_IDK2 human mAb (clone AF165R4.2-E2) (antibody, V domains shown)
VH: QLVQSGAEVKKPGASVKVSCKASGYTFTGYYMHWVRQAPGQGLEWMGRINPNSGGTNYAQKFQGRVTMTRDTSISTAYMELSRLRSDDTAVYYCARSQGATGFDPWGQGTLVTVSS
VL: QLVLTQSPSASGTPGQRVTISCSGSSSNIGSSYVYWYQQLPGAAPKLLIYRNSQRPPGVPDRFSSSKSGTSASLAISGLRSEDEADYYCATWDGSLSGWVFGGGTKLTVLG
notes: The entries include a signal peptide that is marked only by underlining in a drawing; Lambda light chain; also called fully human anti-hBSP antibody
For B2, the binding result in assay [2] is reported as “binds”.

B3: humanized antibody anti-BSP_IDK3 (clone AF177.3) (antibody, V domains shown)
VH: QVQLQQSGAEVVKPGASVKVSCKASGYTFTDFYMHWVKQAPEQGLEWMGIINPANGNTIYAEKFQGRVTMTADKSTNTVYMELSSLTSEDTATYYCSSAYWGQGTLVTVSS
VL: DIVMTQTPPSSSVTIGQPASISCKSSQSLLDNDGNTYLYWYLQKPGQSPQLLIYLVSKRRSGVPDRFSGSGSGTDFTLKISGVEAEDVGVYYCVQGTHDPWTFGGGTKVEIKR
notes: Kappa light chain; also called Humanized mAB of IDK 1
As to B3, the binding result in assay [1] was “binds”.
